Experimental data published in article PMC7854685, “Histone Parylation factor 1 contributes to the inhibition of PARP1 by cancer drugs”.

Key:
PARP2;HPF1 = PARP2;HPF1 (Homo sapiens?;Homo sapiens?, UniProt Q9UGN5;Q9NWY4 1-583;1-346, |); assay: fluorescence polarization (release of labelled DNA on autoPARylation); 2 uM HPF1, PARPi; DNA released by 2 mM NAD+; 50 mM Tris-HCl pH 8.0, 50 mM NaCl, 1 mM MgCl2, 0.1 mM EDTA, 0.01% IGEPAL; temperature not stated; conditions: protein: recombinant;recombinant; (nickel column); copies: 1;1; label: fluorescein (5') in the FP DNA-release assay; blunt
PARP1;HPF1 = PARP1;HPF1 (Homo sapiens?;Homo sapiens?, UniProt P09874;Q9NWY4 1-1014;1-346, |); assay: as above; conditions: protein: recombinant;recombinant; (nickel column); copies: 1;1; label: fluorescein (5') in the FP DNA-release assay; blunt
PARP1 = PARP1 (UniProt P09874 1-1014); assay: fluorescence polarization (release of labelled DNA on autoPARylation); PARPi present or absent; DNA released by 2 mM NAD+, retained without NAD+; 50 mM Tris-HCl pH 8.0, 50 mM NaCl, 1 mM MgCl2, 0.1 mM EDTA, 0.01% IGEPAL; temperature not stated; conditions: protein: recombinant; label: fluorescein (5') in the FP DNA-release assay; blunt
PARP2 = PARP2 (UniProt Q9UGN5 1-583); assay: as above; conditions: protein: recombinant; label: fluorescein (5') in the FP DNA-release assay; blunt

Measured: binding result

PARP1, sequence (P09874 whole entry): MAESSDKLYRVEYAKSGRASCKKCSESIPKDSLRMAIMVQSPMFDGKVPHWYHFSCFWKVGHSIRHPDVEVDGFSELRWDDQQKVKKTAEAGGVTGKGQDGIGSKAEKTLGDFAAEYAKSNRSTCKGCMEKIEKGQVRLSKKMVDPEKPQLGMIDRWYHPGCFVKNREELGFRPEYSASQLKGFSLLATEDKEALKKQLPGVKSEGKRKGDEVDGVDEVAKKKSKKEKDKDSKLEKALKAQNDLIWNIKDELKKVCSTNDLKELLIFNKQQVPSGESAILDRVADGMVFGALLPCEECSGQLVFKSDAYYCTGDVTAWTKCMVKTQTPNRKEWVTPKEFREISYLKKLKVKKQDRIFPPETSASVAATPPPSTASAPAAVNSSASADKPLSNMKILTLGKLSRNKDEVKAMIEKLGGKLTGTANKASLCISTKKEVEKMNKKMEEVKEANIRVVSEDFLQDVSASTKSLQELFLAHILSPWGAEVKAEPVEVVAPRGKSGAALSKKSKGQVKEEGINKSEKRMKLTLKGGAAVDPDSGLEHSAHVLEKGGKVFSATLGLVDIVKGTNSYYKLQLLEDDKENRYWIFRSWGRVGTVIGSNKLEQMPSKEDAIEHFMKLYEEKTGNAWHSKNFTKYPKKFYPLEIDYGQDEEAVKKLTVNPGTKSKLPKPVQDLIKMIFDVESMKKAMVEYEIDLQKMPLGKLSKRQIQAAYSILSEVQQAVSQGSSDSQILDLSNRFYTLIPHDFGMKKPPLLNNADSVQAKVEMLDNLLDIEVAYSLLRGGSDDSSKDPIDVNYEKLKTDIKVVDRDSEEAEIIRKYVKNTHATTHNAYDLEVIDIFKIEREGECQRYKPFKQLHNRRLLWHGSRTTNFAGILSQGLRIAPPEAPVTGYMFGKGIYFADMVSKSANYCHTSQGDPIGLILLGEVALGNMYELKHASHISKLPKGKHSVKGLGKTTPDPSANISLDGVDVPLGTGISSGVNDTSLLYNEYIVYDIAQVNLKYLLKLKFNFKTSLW
PARP1;HPF1, sequence (P09874 whole entry, chain 1 of 2): as the sequence (P09874 whole entry) above
PARP1;HPF1, sequence (Q9NWY4 whole entry, chain 2 of 2): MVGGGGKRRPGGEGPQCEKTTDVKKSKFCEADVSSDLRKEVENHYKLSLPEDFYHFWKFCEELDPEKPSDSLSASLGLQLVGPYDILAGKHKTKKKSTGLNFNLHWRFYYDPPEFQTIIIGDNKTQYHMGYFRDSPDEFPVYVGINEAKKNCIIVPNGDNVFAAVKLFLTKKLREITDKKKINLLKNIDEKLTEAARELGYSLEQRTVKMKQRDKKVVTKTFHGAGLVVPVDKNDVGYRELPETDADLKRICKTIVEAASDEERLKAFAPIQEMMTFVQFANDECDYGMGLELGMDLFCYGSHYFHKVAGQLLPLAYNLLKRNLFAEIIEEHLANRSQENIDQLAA
PARP2;HPF1, sequence (Q9UGN5 whole entry, chain 1 of 2): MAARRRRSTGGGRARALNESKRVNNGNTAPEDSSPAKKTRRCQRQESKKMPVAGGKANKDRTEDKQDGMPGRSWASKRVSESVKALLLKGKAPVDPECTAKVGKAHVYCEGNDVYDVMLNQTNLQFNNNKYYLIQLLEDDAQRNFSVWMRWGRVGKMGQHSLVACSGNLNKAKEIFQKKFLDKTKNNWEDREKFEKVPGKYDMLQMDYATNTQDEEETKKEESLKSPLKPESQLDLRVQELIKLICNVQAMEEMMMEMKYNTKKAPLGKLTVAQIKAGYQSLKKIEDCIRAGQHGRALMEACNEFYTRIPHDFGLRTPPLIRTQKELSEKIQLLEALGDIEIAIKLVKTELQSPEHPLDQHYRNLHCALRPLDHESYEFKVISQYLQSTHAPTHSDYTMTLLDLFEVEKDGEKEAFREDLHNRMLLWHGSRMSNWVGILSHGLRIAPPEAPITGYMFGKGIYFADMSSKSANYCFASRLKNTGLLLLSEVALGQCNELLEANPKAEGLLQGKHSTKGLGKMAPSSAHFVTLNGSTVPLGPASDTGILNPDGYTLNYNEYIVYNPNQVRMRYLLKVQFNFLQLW
PARP2;HPF1, sequence (Q9NWY4 whole entry, chain 2 of 2): as the sequence (Q9NWY4 whole entry, chain 2 of 2) above
PARP2, sequence (Q9UGN5 whole entry): as the sequence (Q9UGN5 whole entry, chain 1 of 2) above

B1: p18mer (dsDNA)
DNA 1: GGGTTGCGGCCGCTTGGG
DNA 2: CCCAAGCGGCCGCAACCC
modifications: 5'-phosphate
binds: PARP2;HPF1 | PARP1;HPF1 | PARP1 | PARP2
